Laboratory results taken from the supplement of paper PMC10899765.

How the values were obtained:
Details in all cases: 20 nM; 72 h
MCF10A [1] = assay: percent viability (nuclei count relative to siNT); higher = more viable cells
Experimental: (§1)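 After 72 h, cells were fixed and stained with Hoechst and anti-fibrillarin, and nucleoli per nucleus were counted with CellProfiler. Values are plate-adjusted percent effect for the one-nucleolus and 5+ nucleoli phenotypes, normalised to siNT (0%) and to the positive controls siNOL11 or siKIF11 (100%), as the mean of biological triplicates. Percent viability is the nuclei count relative to siNT.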

MCF10A [2] = assay: 5+ nucleoli phenotype percent effect (relative to siNT 0% and siKIF11 100%); higher = more cells with five or more nucleoli
Experimental: as §1

MCF10A [3] = assay: nucleolar rRNA biogenesis percent inhibition (5-EU; siNT 0%, siPOLR1A 100%); higher = stronger inhibition of nucleolar rRNA biogenesis
Experimental: (§2)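 Primary screen hits (microRNA mimics) were re-picked and rescreened for nucleolar number in MCF10A cells (hitpick validation; percent effect relative to the siNT and siNOL11/siKIF11 controls). A secondary screen measured nucleolar rRNA biogenesis inhibition: after 72 h of transfection at 20 nM, cells were labelled 1 h with 1 mM 5-EU and nucleolar 5-EU signal was quantified, normalised to siNT (0%) and siPOLR1A (100%). Means are over n=5 (MCF10A) or n=2 (RPE-1, HeLa) biological replicates.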

MCF10A [4] = assay: one-nucleolus phenotype percent effect, hitpick validation (relative to siNT 0% and siNOL11 100%); higher = more cells with one nucleolus
Experimental: as §2

MCF10A [5] = assay: 5+ nucleoli phenotype percent effect, hitpick validation (relative to siNT 0% and siKIF11 100%); higher = more cells with five or more nucleoli
Experimental: as §2

MCF10A [6] = assay: one-nucleolus phenotype percent effect (relative to siNT 0% and siNOL11 100%); higher = more cells with one nucleolus (ribosome biogenesis inhibition)
Experimental: as §1

Sequence | percent viability (MCF10A [1]) [%] | 5+ nucleoli phenotype percent effect (MCF10A [2]) [%] | nucleolar rRNA biogenesis percent inhibition (MCF10A [3]) [%] | one-nucleolus phenotype percent effect (MCF10A [4]) [%] | 5+ nucleoli phenotype percent effect (MCF10A [5]) [%] | one-nucleolus phenotype percent effect (MCF10A [6]) [%]
AAAAGGCAUUGUGGUUUUUG [hsa-miR-548an] | 11.6 | -52.6 | 65.7 | 194 | -8.86 | 137
AAAAGGCGGGAGAAGCCCCA [hsa-miR-4484] | 12 | -51.6 | 69.6 | 199 | -14.7 | 92.8
AAAGGCAUAAAACCAAGACA [hsa-miR-3910] | 11.9 | -39.2 | 12.7 | 167 | -8.76 | 97
AAGCAGCUGCCUCUGAGGC [hsa-miR-646] | 32.4 | -42.6 | 130 | 152 | -14.4 | 70.7
AAGGAGAUGCUCAGGCAGAU [hsa-miR-6888-5p] | 31 | -54 | 50.6 | 173 | -11.7 | 86.2
ACUGGGCUUGGAGUCAGAAG [hsa-miR-378g] | 16.8 | -34.6 | 57.9 | 159 | -9.08 | 91.2
ACUGGGGAGCAGAAGGAGAACC [hsa-miR-4667-5p] | 9.07 | -15.5 | 81.2 | 107 | 9.27 | 67.8
AGAAAGGGUGGCAAUACCUCUU [hsa-miR-5681a] | 8.23 | -33.1 | 76.4 | 165 | -15.4 | 114
AGAGCAGAAGGAUGAGAU [hsa-miR-4468] | 16.5 | -43.6 | 102 | 109 | -14.8 | 66.8
AGGAGCAGUGCCGGCCAAGGCGCC [hsa-miR-6081] | 22.9 | -52.9 | 57.3 | 152 | -16.9 | 81.7
AGGAGCUAUCCACUCCAGGUGUCC [hsa-miR-6500-5p] | 19.2 | -33 | 61.3 | 153 | 5.46 | 70.9
AGGUAUUGCCACCCUUUCUAGU [hsa-miR-5681b] | 12.7 | -35.5 | 66 | 133 | -3.11 | 90.7
AGUGUGGCUUUCUUAGAGC [hsa-miR-644a] | 35 | -48.4 | 101 | 170 | -13.1 | 93.5
CAAAGGUAUUUGUGGUUUUUG [hsa-miR-548m] | 39.4 | -40.8 | 4.11 | 130 | -10.9 | 68.6
CAAUGGCACAAACUCAUUCUUGA [hsa-miR-5197-5p] | 22.7 | -38.9 | 16.5 | 65.4 | 20.5 | 71
CACCAGGGCAGAGCAGGGCUGA [hsa-miR-6753-5p] | 15 | -40 | 91.2 | 141 | -17.4 | 68.1
CAGCCUCUGCCCUUGGCCUCC [hsa-miR-6877-3p] | 28.9 | -44.7 | 114 | 153 | -16.2 | 69.1
CCCCACCUCCUCUCUCCUCAG [hsa-miR-1224-3p] | 86.7 | 97.2 | 22.4 | -32.5 | 28.1 | -25.7
CCGUCGCCGCCACCCGAGCCG [hsa-miR-1181] | 128 | 96.7 | 86.9 | -55.6 | 40.2 | -33.1
CGCGCCGGGCCCGGGUU [hsa-miR-3195] | 19.4 | -31.1 | 51.6 | 196 | -15.6 | 82.1
CUAGGGGGUUUGCCCUUG [hsa-miR-4278] | 13.5 | -35.5 | 45.6 | 151 | -14.3 | 67.1
CUCGGCGCGGGGCGCGGGCUCC [hsa-miR-1469] | 30 | -35.5 | 96.7 | 158 | -13.8 | 74.3
CUCUCCCUCUUUACCCACUAG [hsa-miR-6867-3p] | 61.8 | 133 | 71.1 | -40.4 | 49.1 | -35
CUCUCCUCCCGGCUUC [hsa-miR-4279] | 14.1 | -34.9 | 26.8 | 188 | -6.3 | 87.9
CUGGCGGAGCCCAUUCCAUGCCA [hsa-miR-4730] | 18.2 | -43.2 | 91.1 | 230 | -12.7 | 118
CUGGCGGCUGUGUCUUCACAG [hsa-miR-6770-3p] | 18.4 | -40.2 | -8.82 | -1.66 | 1.2 | 110
GAGCAAUGUAGGUAGACUGUUU [hsa-miR-3908] | 19.8 | -34.4 | 7.34 | 166 | -5.96 | 89.1

Sequence | percent viability (MCF10A [1]) [%] | 5+ nucleoli phenotype percent effect (MCF10A [2]) [%] | nucleolar rRNA biogenesis percent inhibition (MCF10A [3]) [%] | one-nucleolus phenotype percent effect (MCF10A [4]) [%] | 5+ nucleoli phenotype percent effect (MCF10A [5]) [%] | one-nucleolus phenotype percent effect (MCF10A [6]) [%]
GAGCAGGCGAGGCUGGGCUGAA [hsa-miR-4690-5p] | 11.1 | -41.1 | 101 | 176 | -12.8 | 70.8
GAGGGCAUGCGCACUUUGUCC [hsa-miR-4761-3p] | 20 | -23.9 | 76 | 86.5 | 14.2 | 85.1
GAGGGCGGGUGGAGGAGGA [hsa-miR-3141] | 20.1 | -29.5 | 51.1 | 129 | -4.23 | 72.7
UUUCUAUGUUAGUUGGAAG [hsa-miR-7159-3p] | 26.4 | 0.357 | – | – | – | 5.4
UUUCUAUUUCUCAGUGGGGCUC [hsa-miR-4482-3p] | 21.2 | 0.737 | – | – | – | 31.6
UUUCUCUCUCCACUUCCUCAG [hsa-miR-6833-3p] | 28.4 | 22.2 | – | – | – | -1.79
UUUCUGUCUUUUCUGGUCCAG [hsa-miR-4743-3p] | 17.7 | -25.7 | – | – | – | 57.9
UUUCUUCUUAGACAUGGCAACG [hsa-miR-4659a-3p] | 51.4 | -14.6 | – | – | – | -9.58
UUUCUUCUUAGACAUGGCAGCU [hsa-miR-4659b-3p] | 31.6 | -29.4 | – | – | – | -5.32
UUUGAGGCUACAGUGAGAUGUG [hsa-miR-1304-5p] | 68.3 | 15.4 | – | – | – | 0.012
UUUGGACAGAAAACACGCAGGU [hsa-miR-4520b-3p] | 87 | 50 | – | – | – | -21.6
UUUGGCAAUGGUAGAACUCACACU [hsa-miR-182-5p] | 22.8 | 13.1 | – | – | – | 25
UUUGGCACUAGCACAUUUUUGCU [hsa-miR-96-5p] | 28.4 | 16.6 | – | – | – | 19.4
UUUGGGAUUGACGCCACAUGUCU [hsa-miR-6513-5p] | 72.6 | 91.1 | – | – | – | -20.1
UUUGGUCCCCUUCAACCAGCUA [hsa-miR-133b] | 52.5 | -11.4 | – | – | – | 16.1
UUUGGUCCCCUUCAACCAGCUG [hsa-miR-133a] | 34.5 | -24.8 | – | – | – | 20.5
UUUGUAUGGAUAUGUGUGUGUAU [hsa-miR-3149] | 37.6 | -7.06 | – | – | – | 2.3
UUUGUGACCUGGUCCACUAACC [hsa-miR-758-3p] | 52.5 | -42 | – | – | – | 35.1
UUUGUUCGUUCGGCUCGCGUGA [hsa-miR-375] | 59.7 | 5.82 | – | – | – | 0.601
UUUUAAGGACACUGAGGGAUC [hsa-miR-7856-5p] | 70.5 | 57.8 | – | – | – | -30.1
UUUUCAACUCUAAUGGGAGAGA [hsa-miR-1305] | 72.2 | -6.71 | – | – | – | 9.11
UUUUGCAAUAUGUUCCUGAAUA [hsa-miR-450b-5p] | 108 | 14.4 | – | – | – | -22.9
UUUUGCACCUUUUGGAGUGAA [hsa-miR-507] | 42.2 | -28 | – | – | – | 25.1
UUUUGCAUGACCCUGGGAGUAGG [hsa-miR-3680-3p] | 51 | -18.3 | – | – | – | 11.5
UUUUGCGAUGUGUUCCUAAUAU [hsa-miR-450a-5p] | 65.3 | 13.7 | – | – | – | 3.94
UUUUGUGUCUCCCAUUCCCCAG [hsa-miR-5010-3p] | 57.3 | -18.5 | – | – | – | -9.03
UUUUUCAUUAUUGCUCCUGACC [hsa-miR-335-3p] | 157 | 26.8 | – | – | – | -20.3
